Like-named read-outs stand apart in the source and are kept apart here. Blank lines part the entries; values can stand above or below the substance they belong to.
Tests used:
[1] = molecular target: 2-CysPrx C54S variant, non-tagged (Arabidopsis thaliana); experiment: SEC
[2] = molecular target: 2-CysPrx C176S variant, non-tagged (Arabidopsis thaliana); experiment: ITC
[3] = molecular target: 2-CysPrx C176S variant, non-tagged (Arabidopsis thaliana); experiment: SEC
[4] = molecular target: 2-CysPrx C-terminally truncated variant ΔC (–20 aa), non-tagged (Arabidopsis thaliana); experiment: SEC
[5] = molecular target: 2-CysPrx F84R variant, non-tagged (Arabidopsis thaliana); experiment: SEC
[6] = molecular target: 2-CysPrx F84R variant, non-tagged (Arabidopsis thaliana); experiment: SEC; remark: listed apart in the source
[7] = molecular target: 2-Cysteine peroxiredoxin A (At2-CysPrx) wild type, non-tagged (Arabidopsis thaliana); experiment: SEC
[8] = molecular target: 2-Cysteine peroxiredoxin A (At2-CysPrx) wild type, non-tagged (Arabidopsis thaliana); experiment: ITC
[9] = molecular target: 2-Cysteine peroxiredoxin A (At2-CysPrx) wild type, non-tagged (Arabidopsis thaliana); experiment: SEC; remark: listed apart in the source

stoichiometry N [1]: 10
Substance: 2-CysPrx C54S variant, non-tagged (enzyme)

CTC (critical transition concentration, oligomer to dimers) [2]: 0.63 µM | dH (dissociation enthalpy ΔHm) [2]: 1610 kcal/mol | stoichiometry N [3]: 10
Substance: 2-CysPrx C176S variant, non-tagged (enzyme)

stoichiometry N [4]: 2
Substance: 2-CysPrx C-terminally truncated variant ΔC (–20 aa), non-tagged (enzyme)

stoichiometry N [5]: 2 | stoichiometry N [6]: 2
Substance: 2-CysPrx F84R variant, non-tagged (enzyme)

stoichiometry N [7]: 10 | CTC (critical transition concentration, oligomer to dimers) [8]: 3.73 µM | dH (dissociation enthalpy ΔHm) [8]: 72 kcal/mol | stoichiometry N [9]: 2
Substance: 2-Cysteine peroxiredoxin A (At2-CysPrx) wild type, non-tagged (enzyme)

Source: PMC3733160
